According to patent US20230357424A1 (published 2023):

T1: human CD45 D1-D4 (amino acids 194-578) with C-terminal 8xHis tag (human, UniProt P08575 194-578)
T1 construct: Made in house in expi293 cells; SPR analyte; also called D1-D4 region of human CD45RO
T1 sequence: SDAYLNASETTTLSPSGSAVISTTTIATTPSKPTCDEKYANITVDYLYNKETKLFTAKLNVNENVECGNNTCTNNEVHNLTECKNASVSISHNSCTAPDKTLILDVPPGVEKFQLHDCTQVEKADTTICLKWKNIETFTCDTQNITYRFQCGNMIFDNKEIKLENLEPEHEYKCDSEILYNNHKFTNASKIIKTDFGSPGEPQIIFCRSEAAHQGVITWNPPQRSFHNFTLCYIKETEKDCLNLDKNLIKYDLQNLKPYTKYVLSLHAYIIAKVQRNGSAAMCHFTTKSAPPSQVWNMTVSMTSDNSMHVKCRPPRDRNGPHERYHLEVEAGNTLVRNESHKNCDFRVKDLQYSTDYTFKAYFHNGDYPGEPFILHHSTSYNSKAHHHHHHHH

T2: hCD45 D1 domain displayed on yeast as Aga2 fusion (human)
T2 construct: not shown: Aga2p anchor protein for yeast surface expression
T2 chain: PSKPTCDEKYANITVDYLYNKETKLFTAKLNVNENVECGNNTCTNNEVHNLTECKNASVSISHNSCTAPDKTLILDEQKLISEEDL

T3: hCD45 D3 domain displayed on yeast as Aga2 fusion (human)
T3 construct: not shown: Aga2p anchor protein for yeast surface expression
T3 chain: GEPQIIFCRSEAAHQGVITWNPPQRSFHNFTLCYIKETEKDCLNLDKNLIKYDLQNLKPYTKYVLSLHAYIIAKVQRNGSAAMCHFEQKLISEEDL

T4: hCD45 D4 domain displayed on yeast as Aga2 fusion (human, UniProt P08575 479-571)
T4 construct: not shown: Aga2p anchor protein for yeast surface expression
T4 sequence: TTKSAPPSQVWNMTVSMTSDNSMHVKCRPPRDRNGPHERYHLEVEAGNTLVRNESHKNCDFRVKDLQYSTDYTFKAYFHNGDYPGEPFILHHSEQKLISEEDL

B1: 1G1 VHH monomeric Fc fusion (Fc fusion)
VHH: QVQLQASGGGLVQAGGSLRLSCAASGRTVSSDAMGWFRQAPGKEREFVAAINWNGASTYYGDSAQGRFTISRDNAKNTVYLQMNSLKSEDTAVYYCAASDWVVGGISLMNGAEYKYWGQGTLVTVSS
notes: Clonotype 7; Construct used for SPR; not shown: monomeric Fc tag
B2: 2F8 VHH monomeric Fc fusion (Fc fusion)
VHH: QVQLQQFGGGLVQAGGSLRLSCAASGRTFSGYAMGWFRQAPGKEREFVAAINWSGGSTYYADSVKGRYTISRDNAKNTGYLQMNSLKSEDTAVYYCAASDWVVGGISLMNGAEYKYWGQGTLVTVSS
notes: as for B1
B3: 1A10 VHH monomeric Fc fusion (Fc fusion)
VHH: QVQLQAFGGGLVQAGGSLGLSCSASGTIFNLDYMGWYRQALGKQRELVATITSDGRTNYADSVKGRFTIFRDGAKNAILMQMNSLKPEDTAVYYCKAYLSGRSDYWGQGTQVTVSS
notes: Clonotype 10; Construct used for SPR; not shown: monomeric Fc tag
B4: 1D6 VHH monomeric Fc fusion (Fc fusion)
VHH: QVQLQESGGGSVQAGGSLGLFCSASGTIFNIDVMGWYRQAPGKQRELVATITSDGRTNYADSVKGRFTISRDGAKNAVHVQMNSLKPEDTAVYYCKAYLSGRSDYWGQGTQVTVSS
notes: as for B3
B5: 2G4 VHH monomeric Fc fusion (Fc fusion)
VHH: QVQLQEFGGGLVQAGGSLRLSCAASGSISRINAMGWYRQAPGKQRELVAVITSGGSTHYADSVKGRFTISRDNAKNTLYLQMNSLKPEDTAVYYCNGRRKTTGWGSLREWEGSRDPDEYNYWGQGTLVTVSS
notes: Clonotype 2; Construct used for SPR; not shown: monomeric Fc tag
B6: 2H7 VHH monomeric Fc fusion (Fc fusion)
VHH: QVQLQESGGGLVQAGGSLRLSCAASGRTFSTHAMGWFRQAPGKEREFVAAIAWSGGSTYYADSVKGRFTISRDISKNTIYLQMNSLKPEDTALYYCAATNGGAWHYHERYFGSWGQGTLVTVSS
notes: Clonotype 8; Construct used for SPR; not shown: monomeric Fc tag
B7: 1E4 VHH monomeric Fc fusion (Fc fusion)
VHH: QVQLQESGGGLVQPGGSLRLSCAASGGTFSDYGMGWFRQAPGKEREFVSSISWSGNSVYYAGAVRGRFTISRDNAKNTVYLQMNSLQPEDTAVYYCAASSTWNNNDPTEYEYWGQGTLVTVSS
notes: Clonotype 3; Construct used for SPR; not shown: monomeric Fc tag
B8: 2C5 VHH monomeric Fc fusion (Fc fusion)
VHH: QVQLQEFGGGLVQAGASLRLSCAASGGTFSYFMGWFRQAPGKEREFVATINRNGGATGYADSVKGRFTISRDNAKNTLYLQMDSVTPEDTAVYYCAAARESSVYYTSTDPAEYGYWGQGTQVTVSS
notes: Clonotype 6; Construct used for SPR; not shown: monomeric Fc tag
B9: 4B2 anti-CD45 antibody, recombinant mouse IgG2a (antibody, from another filing, V domains shown)
VH: GVQLQESGAELARPGASVKMSCKASGYTFTSYTMQWVKQRPGQGLEWIGYINPSSGYIKYNQKFKDKVTLTADKSSTTAYMQLSRLTSEDSAVYYCARRGSYFFDFWGQGTSVTVSS
VL: DIVITQDELSNPVTSGESVSISCRSSKSLLYKDGKTYLNWFLQRPGQSPQLLIYLMSTRASGVSDRFSGSGSGTDFTLEISRVKAEDVGVYYCQQLVEYPFTFGGGTKLEVK
B10: gap8.3 anti-CD45 antibody, recombinant mouse IgG2a (antibody, from another filing, V domains shown)
VH: EVQLQQSGPELVKTGASVKISCKASGYSFTGYFIHWVKQSHGKSLEWIGYISCYNGATSYNQKFKGKATFTVDTSSSTAYMQFNSVTSEDSAVYYCVRNYYGNLDAMDYWGQGTSVTVSS
VL: DIVMTQSHKFMSTSVGDRVSITCKASQDVSTAVAWYQQKPGQSPKILIYSASYRYTGVPDRFTGSGSGTDFTFTISSVQAEDLAVYYCQQHYSTPRTFGGGTKLEIK
B11: 4B2 scFv linked to a human IgG1 Fc domain (scFv, from another filing, V domains shown)
VH: B9 VH
VL: B9 VL
B12: gap8.3 scFv linked to a human IgG1 Fc domain (scFv, from another filing, V domains shown)
VH: B10 VH
VL: B10 VL
B13: 1G1 VHH, His-tagged (VHH)
VHH: B1 VHH
notes: Clonotype 7; not shown: His tag
B14: 1A10 VHH, His-tagged (VHH)
VHH: B3 VHH
notes: Clonotype 10; not shown: His tag
B15: 1D6 VHH, His-tagged (VHH)
VHH: B4 VHH
notes: as for B14
B16: 2D6 VHH, His-tagged (VHH)
VHH: QVQLQESGGGLVQAGASLRLSCAASGRTFSSFMGWFRQAPGKERKFVATINWNGGATGYADSVKGRFTISRDNAKNTLYLQMNSLKPEDTAVYYCAAARTGSAYYTSSDAGEYNYWGQGTQVTVSS
notes: Clonotype 6; not shown: His tag

target: T1, human CD45 D1-D4 (amino acids 194-578) …; assay: SPR, Biacore T200, single cycle kinetics; VHH monomeric Fc fusion captured on Protein A chip, CD45 D1-D4 as analyte
Method: The yeast display system as described above was employed to domain map the VHH binding sites. For labeling, His-tagged VHH proteins were incubated with the yeast and detected using an anti-VHH antibody. Seven VHH clonotypes bound across all four domains of CD45RO, with clonotypes 3, 4, and 7 targeting the D1 and D2 domains, clonotype 10 binding the D3 domain, clonotypes 2, 6, and 8 interacting with the D4 domain (Table 3).
Affinities were determined using a Biacore T200 instrument by measuring Kon/Koff in single cycle kinetics mode. Hybridoma clones were either reformatted and expressed in the form of the parent IgG (gap8.3, 4B2, 9.4 as murine IgG2A, VHE as human IgG1), and scFvs were expressed as human IgG1 Fc fusions. For the anti-CD45 VHH, proteins were expressed as monomeric Fc fusions. […] Human CD45 D1-D4 was generated in house with a C-terminal 8×His tag (SEQ ID NO: 610) and expressed and purified from expi293 cells by standard Ni- and SEC chromatography methods. Kinetic affinity constants were calculated using the Biacore® T200 software package.

Kd [nM]	Molecule
28	B1
69	B2
32	B3
522	B4
8.3	B5
0.88	B6
299	B7
1.4	B8

target: human CD45 D1-D4 (amino acids 194-578) with C-terminal 8xHis tag (human) (UniProt P08575); assay: SPR, Biacore T200, single cycle kinetics; IgG captured on Protein A chip, CD45 D1-D4 as analyte

Kd [nM]	Molecule
2.4	9.4 anti-CD45 antibody, recombinant mouse IgG2a
17	B9
21	B10

target: human CD45 D1-D4 (amino acids 194-578) with C-terminal 8xHis tag (human) (UniProt P08575); assay: SPR, Biacore T200, single cycle kinetics; scFv-Fc captured on Protein A chip, CD45 D1-D4 as analyte

Kd [nM]	Molecule
18	9.4 scFv linked to a human IgG1 Fc domain
12	B11
40	B12

Target: T2, hCD45 D1 domain displayed on yeast as …
Assay: epitope mapping (yeast display) and affinity studies; grade in column Notes
Method: (§1) CD45 domains described in FIG. 2 were fused to the C-term of Aga2 with an N-term FLAG and C-term c-Myc tag. Yeast constructs were expressed on the surface of yeast (S. cervisiae ATCC strain YVH10). Yeast were grown overnight at 30C in synthetic selective media SD-SCAA, then induced again overnight at 20° C. in SG-SCAA. Yeast were incubated with individual a-CD45 antibodies or a-CD45 VHH for 60 minutes on ice, washed, and incubated with anti-mouse/anti-human Fc or anti-VHH Alexa647 secondary antibody as well as an anti-FLAG or anti-c-Myc Alexa488 secondary antibody. Labeled yeast were analyzed by flow cytometry on a Beckman Coulter Cytoflex® and analyzed using the FlowJo® software package.
(§2) The results of the epitope mapping of the VHHs described above conducted in substantial accordance with the teaching of Example 3 and the affinity measurements conducted in substantial accordance with the teaching of Example 4 above are summarized in the following Table 7 and the sequences of the VHHs and corresponding CDRs are provide in Table 4 above: […]

binding result	Molecule
binds	B13

Target: T3, hCD45 D3 domain displayed on yeast as …
Assay: as above
Method: as §1, §2

binding result	Molecule
binds	B14
binds	B15

target: T4, hCD45 D4 domain displayed on yeast as …; assay: as above
Method: as §1, §2

binding result	Molecule
binds	B16
